Article PMC8982864 (PLoS Biology, 2022)

Columns and labels:
[1] = biological target: CSPG4 domain 1 fragment, residues 401-560 (D1401-560), C-terminal GFP (UniProt Q6UVK1); test: Bio-layer interferometry (Octet Red 96, ForteBio); conditions: pH 7.5; 25°C; PBS (composition not stated)
[2] = biological target: Frizzled-2 cysteine-rich domain Fc fusion (FZD2-CRD-Fc, 'CRD2') (UniProt Q14332); test: Bio-layer interferometry (Octet Red 96, ForteBio); conditions: 25°C, PBS (composition not stated)
[3] = biological target: FZD2 CRD (CRD2) CRD (Homo sapiens) (UniProt Q14332); conditions: cited from earlier work
[4] = biological target: CSPG4 D1401-560 401-560 (Homo sapiens) (UniProt Q6UVK1); conditions: cited from earlier work
[5] = biological target: TcdB-biotin (biotinylated full-length TcdB) (Clostridioides difficile (VPI 10463 …, UniProt P18177 1-2366)); test: ELISA; conditions: both partners purified

Sequence of CSPG4 domain 1 fragment, residues 401-560 (D1401-560), C-terminal GFP (Q6UVK1 whole entry, the tested form may be a part): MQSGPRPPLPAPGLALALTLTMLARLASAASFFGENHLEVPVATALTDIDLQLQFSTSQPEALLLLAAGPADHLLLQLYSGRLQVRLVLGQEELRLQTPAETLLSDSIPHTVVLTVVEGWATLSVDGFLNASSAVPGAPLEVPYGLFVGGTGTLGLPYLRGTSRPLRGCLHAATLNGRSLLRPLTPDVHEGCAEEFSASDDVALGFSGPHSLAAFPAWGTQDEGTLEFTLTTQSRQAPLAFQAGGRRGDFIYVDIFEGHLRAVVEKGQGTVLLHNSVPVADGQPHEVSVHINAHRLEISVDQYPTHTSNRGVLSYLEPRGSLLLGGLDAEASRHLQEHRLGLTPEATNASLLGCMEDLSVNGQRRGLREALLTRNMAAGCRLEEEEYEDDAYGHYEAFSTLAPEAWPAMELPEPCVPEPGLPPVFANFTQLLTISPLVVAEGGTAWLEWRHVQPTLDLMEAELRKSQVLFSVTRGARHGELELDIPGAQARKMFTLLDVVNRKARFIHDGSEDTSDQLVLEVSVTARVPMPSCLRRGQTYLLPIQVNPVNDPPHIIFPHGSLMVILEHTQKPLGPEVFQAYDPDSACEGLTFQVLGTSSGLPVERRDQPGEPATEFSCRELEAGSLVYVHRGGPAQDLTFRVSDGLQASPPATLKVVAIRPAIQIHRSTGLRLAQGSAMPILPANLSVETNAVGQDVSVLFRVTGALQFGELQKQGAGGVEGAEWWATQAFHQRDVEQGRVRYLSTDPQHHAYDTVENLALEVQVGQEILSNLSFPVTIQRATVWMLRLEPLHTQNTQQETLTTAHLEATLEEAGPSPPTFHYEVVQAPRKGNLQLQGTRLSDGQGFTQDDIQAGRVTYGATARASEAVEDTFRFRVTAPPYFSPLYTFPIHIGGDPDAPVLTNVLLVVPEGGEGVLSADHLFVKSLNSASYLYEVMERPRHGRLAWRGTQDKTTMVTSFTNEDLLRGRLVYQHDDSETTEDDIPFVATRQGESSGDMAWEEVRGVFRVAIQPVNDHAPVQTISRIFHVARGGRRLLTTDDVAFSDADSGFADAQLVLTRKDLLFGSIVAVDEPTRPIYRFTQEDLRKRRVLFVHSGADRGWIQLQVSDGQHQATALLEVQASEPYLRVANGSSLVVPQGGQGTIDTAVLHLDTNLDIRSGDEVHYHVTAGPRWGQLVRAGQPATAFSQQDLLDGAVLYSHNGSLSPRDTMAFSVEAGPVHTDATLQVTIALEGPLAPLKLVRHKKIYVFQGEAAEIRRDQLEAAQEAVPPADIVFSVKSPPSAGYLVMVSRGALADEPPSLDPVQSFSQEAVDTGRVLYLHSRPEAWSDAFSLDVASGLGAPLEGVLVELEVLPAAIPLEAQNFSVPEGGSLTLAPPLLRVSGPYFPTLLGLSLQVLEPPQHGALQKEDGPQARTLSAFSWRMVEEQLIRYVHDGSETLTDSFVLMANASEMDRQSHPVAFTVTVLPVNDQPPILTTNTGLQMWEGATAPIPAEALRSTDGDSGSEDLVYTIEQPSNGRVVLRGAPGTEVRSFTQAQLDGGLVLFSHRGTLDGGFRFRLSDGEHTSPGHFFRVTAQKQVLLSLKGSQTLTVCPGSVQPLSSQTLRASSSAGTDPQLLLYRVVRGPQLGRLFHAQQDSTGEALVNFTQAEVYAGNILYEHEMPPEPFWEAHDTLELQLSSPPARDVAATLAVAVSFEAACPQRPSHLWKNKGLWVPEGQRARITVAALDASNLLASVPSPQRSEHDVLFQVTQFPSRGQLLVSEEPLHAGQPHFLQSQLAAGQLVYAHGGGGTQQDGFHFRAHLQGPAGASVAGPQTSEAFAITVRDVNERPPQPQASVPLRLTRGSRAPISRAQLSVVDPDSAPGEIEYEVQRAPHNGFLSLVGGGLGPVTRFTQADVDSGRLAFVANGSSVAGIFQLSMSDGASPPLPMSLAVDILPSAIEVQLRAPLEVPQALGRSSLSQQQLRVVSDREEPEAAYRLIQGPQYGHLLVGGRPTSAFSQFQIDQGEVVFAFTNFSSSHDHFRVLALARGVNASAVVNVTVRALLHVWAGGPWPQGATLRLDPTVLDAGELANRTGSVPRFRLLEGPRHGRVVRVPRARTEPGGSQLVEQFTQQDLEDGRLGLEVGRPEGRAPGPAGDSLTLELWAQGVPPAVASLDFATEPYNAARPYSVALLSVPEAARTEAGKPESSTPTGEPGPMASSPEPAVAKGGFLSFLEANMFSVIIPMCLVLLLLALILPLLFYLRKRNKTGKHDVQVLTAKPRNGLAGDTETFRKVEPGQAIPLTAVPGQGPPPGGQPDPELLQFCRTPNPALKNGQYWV

## Toxin B (TcdB), full length, C-terminal 6xHis
[1]
  KD: approximately 10 nM
[2]; pH 5
  KD: approximately 1 μM
[2]; pH 7.5
  KD: approximately 12 nM

## TcdB (from UniProt P18177)
[3]
  Kd: 0.019 µM
[4]
  Kd: 0.029 µM

B1: CSPG4 domain 1 fragment D1_(401-560) with C-terminal GFP tag (domain or fragment, UniProt Q6UVK1 401-560, looked up)
chain: LAPEAWPAMELPEPCVPEPGLPPVFANFTQLLTISPLVVAEGGTAWLEWRHVQPTLDLMEAELRKSQVLFSVTRGARHGELELDIPGAQARKMFTLLDVVNRKARFIHDGSEDTSDQLVLEVSVTARVPMPSCLRRGQTYLLPIQVNPVNDPPHIIFPHG
notes: not shown: GFP, C-terminal, kept
[5]
  binding result: binds
